Experimental data from the supplement of paper PMC12764529.
± gives the half width of the 95% confidence interval.

Assays:
[1] = folding stability dG unfold from trypsin proteolysis; higher = more stable
Summary of the method: (§1)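 Unfolding free energy was derived, per protease or combined, against a sequence-predicted unfolded-state K50 and a shared folded-state K50, starting from K50 inferred by Bayesian fitting of sequencing counts. Digestion with trypsin and chymotrypsin was carried out on designed mini-proteins under 80 residues without cysteine in a PA-tagged cDNA display construct. Only designs with AlphaFold2 dimer inter-PAE above 15 were kept.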

[2] = folding stability dG unfold from chymotrypsin proteolysis; higher = more stable
Summary of the method: as §1

[3] = folding stability dG unfold (combined trypsin and chymotrypsin); higher = more stable
Summary of the method: as §1

Sequence | folding stability dG unfold [1] [kcal/mol] | folding stability dG unfold [2] [kcal/mol] | folding stability dG unfold [3] [kcal/mol]
MLLVKAEFTIKNSDGTEETFTVLVEVPESEEEAEEAVEKEIEKIAEEKGLSTENITEIKVEIYPPSEPVKPS [r1_159_JUSTAS] | 2.1 ± 0.098 | 2.7 ± 0.077 | 2.48 ± 0.081
MLTKVSTLTREDPSTGTTTTITVYKPPDGTLIVKVTTTTYSTTPDGTVTTTTSTTTVTLPPSVDVEKVFSSS [r1_243_JUSTAS] | 1.76 ± 0.068 | 3.01 ± 0.056 | 2.58 ± 0.12
MLTLPDGRPAFVRARVVLPPGVRVTVVGDIPAEELERRLGRRVTPEDIVRAVVEAARRRGLTVEAVELDLRS [r1_338_TrMRF] | 1.11 ± 0.013 | 1.02 ± 0.031 | 1.09 ± 0.034
MMKVKIEVRNEENEEVLTIELEVPEGEELTEEEILDLIAERLGLSKEELRKRVRIEYDEETKRIRIEIRIES [r1_285_TrROS_Hall] | 3.5 ± 0.053 | 2.27 ± 0.036 | 2.87 ± 0.08
MRTVLLPIAGLPPEQVREAIERAVRAAREAGQPDTTLIVFNPGPAEQVEETTRLVQELADEPDFTVTVIPIS [r1_387_TrMRF] | 0.685 ± 0.046 | 0.0961 ± 0.12 | 0.382 ± 0.14
MTIEITIVAKTEEEAKEAAEELARKLAEELGLSEEELENLKIEVEKVEVTNEDGEKYYVVKIKIELPPEFKS [r1_81_TrROS_Hall] | 2.93 ± 0.38 | 3.61 ± 0.25 | 3.25 ± 0.4
MTITVRFTFQTEEEAEKAAEEVKRKLAEELGLSEEVLKKIPVEVKRTETGSENGEPVYEVTVTFKLPEELLS [r1_81_JUSTAS] | 4.17 ± 0.14 | 4.94 ± 0.084 | 4.84 ± 0.084
MTLEELKAAEGKRLEDVVTVEIVRVERDPETGEEKVVEKRTITFPPGMTLEELKALLESLPAEVRITRVRRS [r1_132_TrROS_Hall] | 1.85 ± 0.041 | 2.27 ± 0.035 | 2.11 ± 0.11
MTTRTLTLTVETSSPEEAEAVREKIRAELGRPDVDVEILEVTFSPDGTVTITIRLAPGVPEERVRALLDALS [r1_485_JUSTAS] | 3.37 ± 0.05 | 2.266 ± 0.0084 | 2.79 ± 0.034
MTVELETTDIEELLARIEEAAAAGKNVTVTAKPEEFEKIRAEGFKIDEILEVKPVPGDDTVVTLINISPEGS [r1_173_JUSTAS] | 1.11 ± 0.038 | 0.699 ± 0.083 | 0.897 ± 0.085
MVVTVETTMIDPEGNPLTKTFTVPSSVVEALKEAGKPLTKEELEKLVKEKVEAEAKKYNVSVEVTLVSFERS [r1_174_JUSTAS] | 2.21 ± 0.17 | 2.7 ± 0.066 | 2.6 ± 0.27
NKIEIKAYKIEETGEIIVEVKIEFPVYDPETKTIKPVVLTITFVGDPEKAIEAIKKFVDFYGGEIDYIDFGS [r1_488_TrMRF] | 2.84 ± 0.099 | 4.5 ± 0.091 | 4.36 ± 0.1
NPIERLKEAIKNAPPGETADIPFPDGMYININIEPEREKEDGKPRRRRKIKIEIYPPDGKPLGSITLEVPYS [r1_386_TrROS] | 1.49 ± 0.084 | 1.23 ± 0.11 | 1.36 ± 0.15
PANVTYEFELADGYRVRVTLNPETGTATVEVEPVPERPPVAPVFIPRTLPEEEREALRRAAEEAGLEVVVGS [r1_242_TrMRF] | 2.42 ± 0.036 | 3.348 ± 0.031 | 3.06 ± 0.054
PAVPKEYTVTLPNATAKVTLEEYEDFVLATAEVTFPDGAKATVTVTLEPTPDGVKRTVTLNIPPGFGAKLGS [r1_153_TrMRF] | 1.17 ± 0.013 | 1.9 ± 0.03 | 1.65 ± 0.06
PDDVYVMFEIEPTNDGIKIPIKVRVPGKPIAEVEVPVDPDDGKIKIMVKFPSPEALDEAEDLLKELGIKPTS [r1_455_TrROS] | 0.319 ± 0.11 | 0.42 ± 0.12 | 0.537 ± 0.21
PIIHFRSPEDAEDFVKELVKKIAKEARKNGDPGQPYEIKIPVVWHDEDSGGPHRFPIEIEIRPDGDIKLTFS [r1_316_TrROS] | 0.782 ± 0.02 | 1.76 ± 0.088 | 1.42 ± 0.062
PKPLIEIERLPEGVLRARAINPVTGAPITITVPVEPGVDGYRLLAEVEAENVPPELAVKTAETVLALLEKKS [r1_403_TrMRF] | -0.115 ± 0.24 | -0.183 ± 0.33 | -0.0268 ± 0.26
PPGYRPIEIEIPMKVESIEEAKEEVLNFAHELAEAFPNITDINVEVDKIDPNNGYIFAKITIYVGDKTITIS [r1_52_TrROS] | 0.424 ± 0.13 | 2.04 ± 0.081 | 1.8 ± 0.43
PPLKIKMERYPNGMMKIDKIEVPNDGSIKLTLKFPNNGRKIERTIPPNAPPGQEKEIWFPFPNGFYRLKIES [r1_43_TrROS] | 0.0375 ± 0.24 | 0.291 ± 0.26 | 0.32 ± 0.23
PSVVYLVLRRPEGGPVRSFRFPVPDRGEPGFEEVLDLIERVTGVSRGALRKNVRIVPVPETGDVLVVADLSS [r1_285_TrMRF] | 2.052 ± 0.014 | 1.52 ± 0.058 | 1.88 ± 0.065
PVKVIEIRVEDPEKTAEEILAELRKKLPEEVKELRLFIVTPDGRVREIEPGETLADLLKPGDTVRIVVVERS [r1_56_TrROS_Hall] | 4.81 ± 0.34 | 5.66 ± 0.45 | > 6
PWVMIPIRVDDPNMTIREIANEVRKALPPGNKNLKISIMWGDGRRYEIDPGETLKDHFPPGDEFHIMVRLPS [r1_56_TrROS] | 1.65 ± 0.02 | 1.3 ± 0.086 | 1.55 ± 0.048
QEIPIKELIKEALENGRPIVFPNGMEITDINPDGSITVKMPYYNPDDPGQPVQPVEMQIKIDEDGRIEVEFS [r1_284_TrROS] | 0.96 ± 0.12 | 1.76 ± 0.054 | 1.45 ± 0.12
SAAEKLPDGTIVIKLTEEEYKKLTEEEIEKIKEELKKEYPENVTVEIKPTKAKKIPTEPFEKGEKYNESSAG [r14_312_JUSTAS] | -0.313 ± 0.37 | -0.267 ± 0.37 | < -1
SAAKKVVTVPLPFLAPENSITPEELVALAVAAFEKLFPGAKIEKFEFNMPVFRLPGDGVIVVVEITDTSSAG [r14_145_TrMRF] | 2.04 ± 0.041 | 2.411 ± 0.024 | 2.32 ± 0.088
SADALKKILSNIHSVEFDPKWGWVTIHFPNKSKIKKALKEGFPRVEMQEDPDGHMMIRIRVPKLPPGQPSAG [r14_115_TrROS] | 1.82 ± 0.057 | 2.65 ± 0.043 | 2.35 ± 0.2
